± gives the uncertainty stated by the source.
Assay: self-splicing fitness, log relative to wild type (ln ratio); higher = more splicing; Tetrahymena group I intron in knt gene, E. coli kanamycin selection, DiMSum; sequences stand for … in CUCUCU…GGAGGGAAAAGUUAUCAGGCAUGCACCUGGUAGCUAGUCUUUAAACCAAUAGAUUGCAUCGGUUUAAAAGGCAAGACCGUCAAAUUGCGGGAAAGGGGUCAACAGCCGUUCAGUACCAAGUCUCAGGGGAAACUUUGAGAUGGCCUUGCAAAGGGUAUGGUAAUAAGCUGACGGACAUGGUCCUAACCACGCAGCCAAGUCCUAAGUCAACAGAUCUUCUGUUGAUAUGGAUGCAGUUCACAGACUAAAUGUCGGUCGGGGAAGAUGUAUUCUUCUCAUAAGAUAUAGUCGGACCUCUCCUUAAUGGGAGCUAGCGGAUGAAGUGAUGCAACACUGGAGCCGCUGGGAACUAAUUUGUAUGCGAAAGUAUAUUGAUUAGUUUUGGAGUACUCGUGGUCG
Outline: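 DiMSum derived fitness as the error-weighted combination of fold changes across replicates, kanamycin versus no kanamycin, normalised to wild type. E. coli BL21(DE3) held the library, which randomised all eight P1ex-region intron nucleotides within the knt kanamycin-resistance gene on pET-22b(+). Six replicate transformations grew overnight at 37°C or 30°C on LB agar with or without 25 μg/mL kanamycin, also containing 100 μg/mL carbenicillin, 50 μM IPTG and 0.2% rhamnose, and pooled colonies were amplicon-sequenced on an Illumina HiSeq 2500.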

Sequence | self-splicing fitness (ln) (30 °C) | self-splicing fitness (ln) (37 °C)
UUUGAGCAAUAUUACGGUUA | -2 ± 0.17 | -1.57 ± 0.15
GCCAAGCAAUAUUACGUAAG | -1.37 ± 0.11 | -0.513 ± 0.13
CGGCAGCAAUAUUACGCGGG | -2.12 ± 0.12 | -1.42 ± 0.13
GAGUAGCAAUAUUACGGGUA | -2.78 ± 0.35 | -2.54 ± 0.26
CUGUAGCAAUAUUACGUACA | -3.41 ± 0.27 | -1.65 ± 0.18
ACGUAGCAAUAUUACGCAAG | -3.16 ± 0.24 | -3.03 ± 0.22
CCCAAGCAAUAUUACGUCUA | -4.2 ± 0.3 | -2.92 ± 0.23
GUGUAGCAAUAUUACGACGG | -3.88 ± 0.31 | -0.904 ± 0.15
UGCAAGCAAUAUUACGAUCC | -1.21 ± 0.14 | -0.955 ± 0.2
AUUUAGCAAUAUUACGGAGU | -2.92 ± 0.27 | -2.29 ± 0.27
GGAUAGCAAUAUUACGACAC | -0.106 ± 0.11 | 0.407 ± 0.14
AACAAGCAAUAUUACGAGGG | -3 ± 0.11 | -1.35 ± 0.15
AACAAGCAAUAUUACGCAGG | -2.67 ± 0.11 | -1.49 ± 0.098
AAGUAGCAAUAUUACGAGAA | -2.44 ± 0.22 | -2.05 ± 0.44
UCUCAGCAAUAUUACGUCGA | -2.07 ± 0.11 | -0.925 ± 0.12
UCGAAGCAAUAUUACGAACA | -0.799 ± 0.12 | -0.112 ± 0.14
GCCAAGCAAUAUUACGGAUC | -0.959 ± 0.071 | -0.179 ± 0.098
GCAAAGCAAUAUUACGACCU | -1.17 ± 0.13 | 0.204 ± 0.16
UGUUAGCAAUAUUACGCUUU | -2.85 ± 0.2 | -1.32 ± 0.14
GCCUAGCAAUAUUACGGGGA | -0.34 ± 0.067 | -0.0121 ± 0.09
GUAUAGCAAUAUUACGUGCA | -0.903 ± 0.19 | -0.516 ± 0.18
CUUCAGCAAUAUUACGAUUU | -3.34 ± 0.21 | -2.33 ± 0.18
GAUGAGCAAUAUUACGUGCC | -2.92 ± 0.23 | -2.3 ± 0.42
UCGAAGCAAUAUUACGGGGU | -4.05 ± 0.21 | -2.25 ± 0.17
ACGGAGCAAUAUUACGGGGA | -1.07 ± 0.24 | -3.6 ± 0.42

Sequence | self-splicing fitness (ln) (30 °C) | self-splicing fitness (ln) (37 °C)
ACUAAGCAAUAUUACGGAGA | -1.36 ± 0.23 | -3.35 ± 0.33
GAGAAGCAAUAUUACGUUAU | -3.33 ± 0.19 | -2.47 ± 0.16
ACGUAGCAAUAUUACGUACC | -1.4 ± 0.13 | -0.541 ± 0.19
UACAAGCAAUAUUACGAUCC | -3.27 ± 0.27 | -1.78 ± 0.24
AACGAGCAAUAUUACGUGUA | -2.55 ± 0.11 | -3.2 ± 0.14
AGAGAGCAAUAUUACGACUA | -2.42 ± 0.44 | 
CGUUAGCAAUAUUACGGAGC | -3.81 ± 0.47 | -1.35 ± 0.47
GUACAGCAAUAUUACGGGUA | -2.08 ± 0.13 | -1.93 ± 0.15
UAAGAGCAAUAUUACGCGUA | -1.55 ± 0.29 | 0.00439 ± 0.15
GCGUAGCAAUAUUACGGGUC | -3.34 ± 0.29 | -1.54 ± 0.21
GACGAGCAAUAUUACGUUGU | -3.4 ± 0.14 | -2.74 ± 0.16
UACUAGCAAUAUUACGAUUU | -2.36 ± 0.12 | -0.92 ± 0.15
GCCAAGCAAUAUUACGUUUU | -2.86 ± 0.085 | -1.3 ± 0.093
AUGUAGCAAUAUUACGGGUU | -2.26 ± 0.1 | -2.23 ± 0.19
AAUCAGCAAUAUUACGGAGU | -0.488 ± 0.047 | 0.346 ± 0.064
GCGCAGCAAUAUUACGAGAC | -3.09 ± 0.23 | -1.18 ± 0.18
UUUCAGCAAUAUUACGGUAU | -3.02 ± 0.19 | -1.67 ± 0.15
GUUUAGCAAUAUUACGUACG | -2.01 ± 0.14 | -0.33 ± 0.17
GACAAGCAAUAUUACGUGUA | -1.56 ± 0.071 | -0.227 ± 0.078
AACGAGCAAUAUUACGGUAA | -4.2 ± 0.42 | -2.47 ± 0.28
UAUGAGCAAUAUUACGCGCA | -1.68 ± 0.12 | -0.965 ± 0.15
CCGCAGCAAUAUUACGCUUG | -3 ± 0.12 | -2.84 ± 0.16
AUAUAGCAAUAUUACGGAGG | -3.24 ± 0.45 | 
GCGUAGCAAUAUUACGACCG | -1.5 ± 0.16 | -0.0305 ± 0.2
CGAAAGCAAUAUUACGACAA | -1.13 ± 0.25 | -1.63 ± 0.18

Sequence | self-splicing fitness (ln) (30 °C) | self-splicing fitness (ln) (37 °C)
CUACAGCAAUAUUACGCCAU | -3.16 ± 0.12 | -2.45 ± 0.14
GUGUAGCAAUAUUACGGACG | -0.958 ± 0.14 | -1.32 ± 0.17
UCCCAGCAAUAUUACGCAGU | -1.21 ± 0.075 | -0.7 ± 0.1
UAAAAGCAAUAUUACGAAAC | -2.8 ± 0.19 | -3.3 ± 0.43
CUUGAGCAAUAUUACGUCUA | -2.76 ± 0.46 | 
ACGCAGCAAUAUUACGAACA | -1.75 ± 0.081 | -1.36 ± 0.086
ACCAAGCAAUAUUACGAGUU | -4.23 ± 0.23 | -1.99 ± 0.17
CAGAAGCAAUAUUACGGCCU | -1.29 ± 0.13 | -1.82 ± 0.23
GUCGAGCAAUAUUACGUGCC | -2.63 ± 0.29 | 
CAAGAGCAAUAUUACGUGUG | -2.56 ± 0.1 | -1.5 ± 0.092
AUGUAGCAAUAUUACGAGGG | -3.49 ± 0.23 | -1.18 ± 0.22
AGGAAGCAAUAUUACGAAUG | -4.53 ± 0.46 | -2.8 ± 0.28
GAACAGCAAUAUUACGUAUG | -1.02 ± 0.091 | -0.888 ± 0.12
CCGAAGCAAUAUUACGUCAA | -3.82 ± 0.38 | -2.35 ± 0.33
UGUUAGCAAUAUUACGUGAG | -1.02 ± 0.051 | -0.331 ± 0.065
AUGAAGCAAUAUUACGGAAG | -1.17 ± 0.1 | -0.408 ± 0.16
GUCGAGCAAUAUUACGGCUG | -2.54 ± 0.25 | -1.7 ± 0.39
AUGCAGCAAUAUUACGAGUA | -2.98 ± 0.19 | -1.53 ± 0.13
UACUAGCAAUAUUACGUAGA | -1.84 ± 0.11 | -1.95 ± 0.16
GACAAGCAAUAUUACGUGCC | -1.69 ± 0.14 | -1.21 ± 0.17
GGCCAGCAAUAUUACGUUGA | -2.04 ± 0.12 | -1.27 ± 0.12
GCUAAGCAAUAUUACGUCAC | -3.38 ± 0.44 | -2.35 ± 0.24
ACACAGCAAUAUUACGGCCA | -1.18 ± 0.12 | -1.17 ± 0.11
GGAGAGCAAUAUUACGCGAU | -2.76 ± 0.28 | -1.64 ± 0.37
UAAGAGCAAUAUUACGGAUU |  | -2.13 ± 0.48

Sequence | self-splicing fitness (ln) (30 °C) | self-splicing fitness (ln) (37 °C)
UUACAGCAAUAUUACGAUGU | -4.69 ± 0.39 | -2.86 ± 0.23
AACUAGCAAUAUUACGGUCU | -0.472 ± 0.055 | 0.465 ± 0.07
AUGGAGCAAUAUUACGCGGU | -2.6 ± 0.25 | -2.29 ± 0.25
UCGGAGCAAUAUUACGUUUU | -3.91 ± 0.4 | 
GCCCAGCAAUAUUACGAAGA | -1.46 ± 0.12 | -0.344 ± 0.14
CCGGAGCAAUAUUACGUGGG | -3.39 ± 0.31 | -2.78 ± 0.38
UAAGAGCAAUAUUACGAAUA | -3.27 ± 0.26 | -1.32 ± 0.19
ACCAAGCAAUAUUACGCUUG | -2.72 ± 0.21 | -3.79 ± 0.36
UGGAAGCAAUAUUACGCCCA |  | -0.992 ± 0.45
ACUUAGCAAUAUUACGGGGG | -2.98 ± 0.23 | -1.96 ± 0.21
UGUCAGCAAUAUUACGGAAU | -2.63 ± 0.15 | -0.922 ± 0.14
GCGCAGCAAUAUUACGGCCA | -0.728 ± 0.12 | -1.03 ± 0.12
CCAUAGCAAUAUUACGAGUA | -3.41 ± 0.32 | -2.06 ± 0.19
CUAUAGCAAUAUUACGCUAU | -2.77 ± 0.15 | -1.72 ± 0.27
UUAAAGCAAUAUUACGAAUA | -1.71 ± 0.088 | -0.164 ± 0.12
UUACAGCAAUAUUACGCCGG | -0.726 ± 0.094 | -0.416 ± 0.13
CUGUAGCAAUAUUACGGUCG | -0.455 ± 0.09 | 0.323 ± 0.12
AGCCAGCAAUAUUACGGUCC | -1.12 ± 0.081 | -0.461 ± 0.12
CUCUAGCAAUAUUACGGUUC | -2.69 ± 0.17 | -2.46 ± 0.29
GGGGAGCAAUAUUACGGCCA | -0.941 ± 0.2 | 0.555 ± 0.21
GGGGAGCAAUAUUACGAUAU | -2.95 ± 0.4 | -0.987 ± 0.24
GGGGAGCAAUAUUACGUUCU | -2.67 ± 0.43 | -0.226 ± 0.35
